From patent US20090099029A1, “Methods and substrates for conducting assays” (Invitrogen Corporation, priority 2005, published 2009)

B1: GRK7 (protein)
chain: MVDMGALDNLIANTAYLQARKPSDCDSKELQRRRRSLALPGLQGCAELRQKLSLNFHSLCEQQPIGRRLFRDFLATVPTFRKAATFLEDVQNWELAEEGPTKDSALQGLVATCASAPAPGNPQPFLSQAVATKCQAATTEEERVAAVTLAKAEAMAFLQEQPFKDFVTSAFYDKFLQWKLFEMQPVSDKYFTEFRVLGKGGFGEVCAVQVKNTGKMYACKKLDKKRLKKKGGEKMALLEKEILEKVSSPFIVSLAYAFESKTHLCLVMSLMNGGDLKFHIYNVGTRGLDMSRVIFYSAQIACGMLHLHELGIVYRDMKPENVLLDDLGNCRLSDLGLAVEMKGGKPITQRAGTNGYMAPEILMEKVSYSYPVDWFAMGCSIYEMVAGRTPFKDYKEKVSKEDLKQRTLQDEVKFQHDNFTEEAKDICRLFLAKKPEQRLGSREKSDDPRKHHFFKTINFPRLEAGLIEPPFVPDPSVVYAKDIAEIDDFSEVRGVEFDDKDKQFFKNFATGAVPIAWQEEIIETGLFEELNDPNRPTGCEEGNSSKSGVCLLL
modifications: left off: a dimerising Fc or GST
B2: DAPK3(ZIPK) (protein)
chain: MSTFRQEDVEDHYEMGEELGSGQFAIVRKCRQKGTGKEYAAKFIKKRRLSSSRRGVSREEIEREVNILREIRHPNIITLHDIFENKTDVVLILELVSGGELFDFLAEKESLTEDEATQFLKQILDGVHYLHSKRIAHFDLKPENIMLLDKNVPNPRIKLIDFGIAHKIEAGNEFKNIFGTPEFVAPEIVNYEPLGLEADMWSIGVITYILLSGASPFLGETKQETLTNISAVNYDFDEEYFSNTSELAKDFIRRLLVKDPKRRMTIAQSLEHSWIKAIRRRNVRGEDSGRKPERRRLKTTRLKEYTIKSHSSLPPNNSYADFERFSKVLEEAAAAEEGLRELQRSRRLCHEDVEALAAIYEEKEAWYREESDSLGQDLRRLRQELLKTEALKRQAQEEAKGALLGTSGLKRRFSRLENRYEALAKQVASEMRFVQDLVRALEQEKLQGVECGLR
modifications: left off: a dimerising Fc or GST
B3: GRK4 (protein)
chain: MELENIVANSLLLKARQGGYGKKSGRSKKWKEILTLPPVSQCSELRHSIEKDYSSLCDKQPIGRRLFRQFCDTKPTLKRHIEFLDAVAEYEVADDEDRSDCGLSILDRFFNDKLAAPLPEIPPDVVTECRLGLKEENPSKKAFEECTRVAHNYLRGEPFEEYQESSYFSQFLQWKWLERQPVTKNTFRHYRVLGKGGFGEVCACQVRATGKMYACKKLQKKRIKKRKGEAMALNEKRILEKVQSRFVVSLAYAYETKDALCLVLTIMNGGDLKFHIYNLGNPGFDEQRAVFYAAELCCGLEDLQRERIVYRDLKPENILLDDRGHIRISDLGLATEIPEGQRVRGRVGTVGYMAPEVVNNEKYTFSPDWWGLGCLIYEMIQGHSPFKKYKEKVKWEEVDQRIKNDTEEYSEKFSEDAKSICRMLLTKNPSKRLGCRGEGAAGVKQHPVFKDINFRRLEANMLEPPFCPDPHAVYCKDVLDIEQFSVVKGIYLDTADEDFYARFATGCVSIPWQNEMIESGCFKDINKSESEEALPLDLDKNIHTPVSRPNRGFFYRLFRRGGCLTMVPSEKEVEPKQC
modifications: left off: a dimerising Fc or GST
B4: GRK6 (protein)
chain: MELENIVANTVLLKAREGGGGNRKGKSKKWRQMLQFPHISQCEELRLSLERDYHSLCERQPIGRLLFREFCATRPELSRCVAFLDGVAEYEVTPDDKRKACGRQLTQNFLSHTGPDLIPEVPRQLVTNCTQRLEQGPCKDLFQELTRLTHEYLSVAPFADYLDSIYFNRFLQWKWLERQPVTKNTFRQYRVLGKGGFGEVCACQVRATGKMYACKKLEKKRIKKRKGEAMALNEKQILEKVNSRFVVSLAYAYETKDALCLVLTLMNGGDLKFHIYHMGQAGFPEARAVFYAAEICCGLEDLHRERIVYRDLKPENILLDDHGHIRISDLGLAVHVPEGQTIKGRVGTVGYMAPEVVKNERYTFSPDWWALGCLLYEMIAGQSPFQQRKKKIKREEVERLVKEVPEEYSERFSPQARSLCSQLLCKDPAERLGCRGGSAREVKEHPLFKKLNFKRLGAGMLEPPFKPDPQAIYCKDVLDIEQFSTVKGVELEPTDQDFYQKFATGSVPIPWQNEMVETECFQELNVFGLDGSVPPDLDWKGQPPAPPKKGLLQRLFSRQDCCGNCSDSEEELPTRL
modifications: left off: a dimerising Fc or GST
B5: GSK3A (protein)
chain: MSGGGPSGGGPGGSGRARTSSFAEPGGGGGGGGGGPGGSASGPGGTGGGKASVGAMGGGVGASSSGGGPGGSGGGGSGGPGAGTSFPPPGVKLGRDSGKVTTVVATLGQGPERSQEVAYTDIKVIGNGSFGVVYQARLAETRELVAIKKVLQDKRFKNRELQIMRKLDHCNIVRLRYFFYSSGEKKDELYLNLVLEYVPETVYRVARHFTKAKLTIPILYVKVYMYQLFRSLAYIHSQGVCHRDIKPQNLLVDPDTAVLKLCDFGSAKQLVRGEPNVSYICSRYYRAPELIFGATDYTSSIDVWSAGCVLAELLLGQPIFPGDSGVDQLVEIIKVLGTPTREQIREMNPNYTEFKFPQIKAHPWTKVFKSRTPPEAIALCSSLLEYTPSSRLSPLEACAHSFFDELRCLGTQLPNNRPLPPLFNFSAGELSIQPSLNAILIPPHLRSPAGTTTLTPSSQALTETPTSSDWQSTDATPTLTNSS
modifications: left off: small tags and cut ends
B6: DYRK3 (protein)
chain: MGGTARGPGRKDAGPPGAGLPPQQRRLGDGVYDTFMMIDETKCPPCSNVLCNPSEPPPPRRLNMTTEQFTGDHTQHFLDGGEMKVEQLFQEFGNRKSNTIQSDGISDSEKCSPTVSQGKSSDCLNTVKSNSSSKAPKVVPLTPEQALKQYKHHLTAYEKLEIINYPEIYFVGPNAKKRHGVIGGPNNGGYDDADGAYIHVPRDHLAYRYEVLKIIGKGSFGQVARVYDHKLRQYVALKMVRNEKRFHRQAAEEIRILEHLKKQDKTGSMNVIHMLESFTFRNHVCMAFELLSIDLYELIKKNKFQGFSVQLVRKFAQSILQSLDALHKNKIIHCDLKPENILLKHHGRSSTKVIDFGSSCFEYQKLYTYIQSRFYRAPEIILGSRYSTPIDIWSFGCILAELLTGQPLFPGEDEGDQLACMMELLGMPPPKLLEQSKRAKYFINSKGIPRYCSVTTQADGRVVLVGGRSRRGKKRGPPGSKDWGTALKGCDDYLFIEFLKRCLHWDPSARLTPAQALRHPWISKSVPRPLTTIDKVSGKRVVNPASAFQGLGSKLPPVVGIANKLKANLMSETNGSIPLCSVLPKLIS
modifications: left off: a dimerising Fc or GST
B7: EPHA2 (protein)
chain: HRRRKNQRARQSPEDVYFSKSEQLKPLKTYVDPHTYEDPNQAVLKFTTEIHPSCVTRQKVIGAGEFGEVYKGMLKTSSGKKEVPVAIKTLKAGYTEKQRVDFLGEAGIMGQFSHHNIIRLEGVISKYKPMMIITEYMENGALDKFLREKDGEFSVLQLVGMLRGIAAGMKYLANMNYVHRDLAARNILVNSNLVCKVSDFGLSRVLEDDPEATYTTSGGKIPIRWTAPEAISYRKFTSASDVWSFGIVMWEVMTYGERPYWELSNHEVMKAINDGFRLPTPMDCPSAIYQLMMQCWQQERARRPKFADIVSILDKLIRAPDSLKTLADFDPRVSIRLPSTSGSEGVPFRTVSEWLESIKMQQYTEHFMAAGYTAIEKVVQMTNDDIKRIGVRLPGHQKRIAYSLLGLKDQVNTVGIPI
modifications: left off: a dimerising Fc or GST
B8: EPHA3 (protein)
chain: RFCGYKSKHGADEKRLHFGNGHLKLPGLRTYVDPHTYEDPTQAVHEFAKELDATNISIDKVVGAGEFGEVCSGRLKLPSKKEISVAIKTLKVGYTEKQRRDFLGEASIMGQFDHPNIIRLEGVVTKSKPVMIVTEYMENGSLDSFLRKHDAQFTVIQLVGMLRGIASGMKYLSDMGYVHRDLAARNILINSNLVCKVSDFGLSRVLEDDPEAAYTTRGGKIPIRWTSPEAIAYRKFTSASDVWSYGIVLWEVMSYGERPYWEMSNQDVIKAVDEGYRLPPPMDCPAALYQLMLDCWQKDRNNRPKFEQIVSILDKLIRNPGSLKIITSAAARPSNLLLDQSNVDITTFRTTGDWLNGVWTAHCKEIFTGVEYSSCDTIAKISTDDMKKVGVTVVGPQKKIISSIKALETQSKNGPVPV
modifications: left off: small tags and cut ends
B9: DMPK (protein)
chain: MSAEVRLRRLQQLVLDPGFLGLEPLLDLLLGVHQELGASELAQDKYVADFLQWAEPIVVRLKEVRLQRDDFEILKVIGRGAFSEVAVVKMKQTGQVYAMKIMNKWDMLKRGEVSCFREERDVLVNGDRRWITQLHFAFQDENYLYLVMEYYVGGDLLTLLSKFGERIPAEMARFYLAEIVMAIDSVHRLGYVHRDIKPDNILLDRCGHIRLADFGSCLKLRADGTVRSLVAVGTPDYLSPEILQAVGGGPGTGSYGPECDWWALGVFAYEMFYGQTPFYADSTAETYGKIVHYKEHLSLPLVDEGVPEEARDFIQRLLCPPETRLGRGGAGDFRTHPFFFGLDWDGLRDSVPPFTPDFEGATDTCNFDLVEDGLTAMVSGGGETLSDIREGAPLGVHLPFVGYSYSCMALRDSEVPGPTPMELEAEQLLEPHVQAPSLEPSVSPQDETAEVAVPAAVPAAEAEAEVTLRELQEALEEEVLTRQSLSREMEAIRTDNQNFASQLREAEARNRDLEAHVRQLQERMELLQAEGATAVTGVPSPRATDPPSHLDGPPAVAVGQCPLVGPGPMHRRHLLLPARVPRPGLSEALSLLLFAVVLSRAAALGCIGLVAHAGQLTAVWRRPGAARAP
modifications: left off: a dimerising Fc or GST

Test system: kinases of Table 6 on Myelin Basic Protein (MBP)
Assay: Kinase assay using MBP substrate, ProQ Diamond stain (Table 6)
Format: biochemical
Conditions: kinase printed on MBP-coated slide; 20 uM ATP, 30° C.; ProQ Diamond Microarray Stain; graded Strong/Weak/Negative
Description: In this illustrative example, four-well slides were designed with a hydrophobic mask surrounding 4-wells of aldehyde- or epoxy-coated glass (smooth or ES grade; Erie Scientific (Portsmouth, N.H.)). […] Bovine, dephosphorylated, Myelin Basic Protein (MBP) was purchased from Upstate Biotechnology (#13-110). MBP was diluted to 1 mg/ml in PBS, applied to the slide surface, covered with a coverslip, and left overnight at 4° C. to coat the slide with the MBP. Slides were washed 3 times with water and spun dry before printing.
Kinases were purchased from Panvera (Invitrogen, Carlsbad, Calif.), diluted in printing buffer (50 mM Tris pH 7.5, 25% glyercol, 0.05% TritonX-100, 2 mM DTT) and deposited using a GeneMachine OmniGrid100. Slides were stored at −20° C.
Reactions were performed following removal of the slide from the freezer. Reaction buffer (20 mM HEPES pH 7.5, 4 mM MgCl2, 2 mM DTT, 20 uM ATP, 5% DMSO) was added with or without inhibitor, a coverslip applied, and the slide placed at 30° C. for the appropriate reaction time. The slide was washed with water to stop the reaction (3 times) and spun dry. ProQ Diamond Microarray Stain (Invitrogen #P33706) was applied, covered with a coverslip, and the slide was incubated in the dark at room temperature for 30 minutes. The slide was destained and washed three times with water, and spun dry.

Molecule | MBP Kinase Activity
B1 | Negative
B2 | Negative
B3 | Negative
B4 | Negative
B5 | Weak
B6 | Negative
B7 | Weak
B8 | Strong
B9 | Negative
